Results from patent US20100291097A1.

Experiments:
[1] = target: Monomer-enriched preparation of the Aβ1-42 peptide (W. M. Keck Facility peptide); assay: ELISA, coated 2.2 µM; Ab 1:2 (start 0.5 µg/ml); mean of 3
[2] = target: Oligomer-enriched preparation of the Aβ1-42 peptide (W. M. Keck Facility peptide); assay: as above
[3] = target: Monomer-enriched preparation of the Aβ1-42 peptide (W. M. Keck Facility peptide); assay: ELISA, coated 2.2 µM; Ab 1:4 (start 0.5 µg/ml); mean of 3
[4] = target: Oligomer-enriched preparation of the Aβ1-42 peptide (W. M. Keck Facility peptide); assay: ELISA, coated 2.2 µM; Ab 1:8 (start 0.5 µg/ml); mean of 3
[5] = target: Monomer-enriched preparation of the Aβ1-42 peptide (W. M. Keck Facility peptide); assay: ELISA, coated 2.2 µM; Ab 1:16 (start 0.5 µg/ml); mean of 3
[6] = target: Monomer-enriched preparation of the Aβ1-42 peptide (W. M. Keck Facility peptide); assay: ELISA, coated 2.2 µM; Ab 1:32 (start 0.5 µg/ml); mean of 3
[7] = target: Oligomer-enriched preparation of the Aβ1-42 peptide (W. M. Keck Facility peptide); assay: as above
[8] = target: Oligomer-enriched preparation of the Aβ1-42 peptide (W. M. Keck Facility peptide); assay: ELISA, coated 2.2 µM; Ab 1:64 (start 0.5 µg/ml); mean of 3
[9] = target: Oligomer-enriched preparation of the Aβ1-42 peptide (W. M. Keck Facility peptide); assay: ELISA, coated 2.2 µM; Ab 1:128 (start 0.5 µg/ml); mean of 3

Chain of Oligomer-enriched preparation of the Aβ1-42 peptide (W. M. Keck Facility peptide) (peptide, as listed by the source): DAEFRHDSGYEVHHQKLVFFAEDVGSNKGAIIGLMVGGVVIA
Chain of Monomer-enriched preparation of the Aβ1-42 peptide (W. M. Keck Facility peptide) (peptide, as listed by the source): as above

O.D. [1]: 3.59 O.D. | O.D. [2]: 3.59 O.D. | O.D. [3]: 3.27 O.D. | O.D. [4]: 2.98 O.D. | O.D. [5]: 1.98 O.D. | O.D. [6]: 1.36 O.D. | O.D. [7]: 1.32 O.D. | O.D. [8]: 0.92 O.D. | O.D. [9]: 0.63 O.D.
Substance: 6E10 control antibody
